In experiment [1] the target is recombinant human CD38 his tagged (extracellular domain) (human) (UniProt P28907). The experiment is described as follows: Forte Bio BLI, IgG on AHQ sensors.
Experiment [2] deals with T1, recombinant human CD38 his tagged (extracellular domain) (human, UniProt P28907 43-300).
T1 construct: Bought from Sino Biological; also called rhCD38; rhCD38-his; not shown: Histidine tag
T1 sequence: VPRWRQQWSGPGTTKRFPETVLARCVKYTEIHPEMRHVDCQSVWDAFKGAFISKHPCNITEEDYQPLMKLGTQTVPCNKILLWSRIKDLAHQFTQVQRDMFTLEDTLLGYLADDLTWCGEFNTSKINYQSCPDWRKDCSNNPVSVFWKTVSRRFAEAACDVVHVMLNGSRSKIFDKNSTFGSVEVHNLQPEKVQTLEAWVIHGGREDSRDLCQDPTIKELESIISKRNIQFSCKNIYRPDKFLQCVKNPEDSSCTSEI
The experiment can be described thus: SPR, Biacore 2000, antibody captured by anti-human antibody, rhCD38-his as analyte.

For experiment [3], the target named is T2, human CD38 expressed on human cell lines (Daudi, Ramos, Raji, Jurkat) (human, UniProt P28907 1-300).
T2 construct: Endogenous CD38 of the cell lines; also called CD38 expressed on cell lines of human origin
T2 sequence: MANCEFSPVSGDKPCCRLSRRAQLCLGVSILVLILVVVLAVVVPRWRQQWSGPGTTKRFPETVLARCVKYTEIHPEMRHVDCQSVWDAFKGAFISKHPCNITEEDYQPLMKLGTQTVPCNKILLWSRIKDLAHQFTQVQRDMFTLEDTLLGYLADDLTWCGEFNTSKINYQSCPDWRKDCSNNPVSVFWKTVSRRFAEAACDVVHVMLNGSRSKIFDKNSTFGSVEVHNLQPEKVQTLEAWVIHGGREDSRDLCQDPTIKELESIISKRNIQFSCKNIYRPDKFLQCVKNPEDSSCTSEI
The experiment is described as follows: flow cytometry on Daudi cells, secondary rabbit anti-human Fcg F(ab')2, MFI against log antibody concentration.
Method: (§1) Binding of anti-CD38 Antibodies to CD38-expressing cells: The candidate hits are evaluated by binding to lymphoblast like human cell lines, Ramos and Daudi. Binding to CD38 expressing human cell lines (Ramos and Daudi) was examined by staining test articles (anti-CD38 primary antibodies) with 20 μg/ml antibodies followed by semi-log dilution series (7-point) for 30 minutes on ice. This was followed by staining with a secondary antibody (rabbit anti-human Fcg F(ab′)2) concentration of 5 μg/ml for 30 minutes on ice. All samples were stained in triplicates. To minimize cross-linking induced cell death mediated by binding of the secondary antibody, cell lines were examined in staining cohorts of 4 test articles at a time. Live cells were gated using FSC vs SSC parameters by flow cytometry during sample acquisition. Mean fluorescence intensity (MFI) of stained cells were plotted on an XY chart, graphing MFI against the log of the concentration, and the data fit to a non-linear regression curve from which the EC50 is calculated.

Experiment [4] addresses T2, human CD38 expressed on human cell …. The experiment can be described thus: flow cytometry on Ramos cells, secondary rabbit anti-human Fcg F(ab')2, MFI against log antibody concentration.
Method: as §1
In experiment [5] the target is T1, recombinant human CD38 his tagged …. The experiment is described as follows: BLI (Octet / Forte Bio), IgG against monovalent human CD38-HIS (affinity).
For experiment [6] the target is unchanged. The experiment can be described thus: BLI (Octet), avidity format: rhCD38-his loaded on Ni-NTA sensor, antibody in solution.
Method: Avidity binding measurements of anti-CD38 Antibodies: Ni-NTA sensors were equilibrated off-line in assay buffer for 30 minutes and then monitored on-line for 60 seconds for baseline establishment. […] Then the antibody was associated at different concentrations (as described in FIGS. 8) for 50 min. Afterwards they were transferred to assay buffer for 30 minutes for off-rate measurement. Kinetics data were fit using a 1:1 binding model in the data analysis software provided by ForteBio.

The text below walks through data of patent publication US20200362050A1 (BLACK BELT THERAPEUTICS, published 2020).

In the case of “IB4, reference monoclonal agonistic mouse anti-human CD38 antibody”, the Kd in experiment [1] was found to be 9 nM.

B1: aCD38-a-309 human IgG1 (aCD38-a-309-hIgG1) (antibody, V domains shown)
VH: EVQLVESGGGLVKPGGSLRLSCAASGFTFSSYSMNWVRQAPGKGLEWVSSISSSSNYIYYADSVKGRFTISRDNAKNSLYLQMNSLRAEDTAVYYCAREPIYTSGWPFDIWGQGTMVIVSS
VL: EIVLTQSPATLSLSPGERATLSCRASQSVSSYLAWYQQKPGQAPRLLIYDASNRATGIPARFSGSGSGTDFTLTISSLEPEDFAVYYCQQHVNFPWTFGGGTKVEIK
notes: They are assigned here because the control is a human IgG1 isotype; not shown: human IgG1 heavy chain constant region, P01857; human kappa light chain constant region, P01834
Regarding B1, the Kd in experiment [2] was 0.65 nM. Further, the half-maximal effective concentration (EC50 (read off the curve)) in experiment [3] is about 0.2 mg/L; in experiment [4], about 0.4 mg/L.

B2: aCD38-a-309-IgG4 (antibody, V domains shown)
VH: B1 VH
VL: B1 VL
Take B2: the Kd in experiment [5] worked out at 32.9 nM; in experiment [6] it was 0.134 nM.
